Test results reported in patent publication US20090131331A1 (DSM IP ASSETS B V, published 2009).

Tests used:
[1] = target: angiotensin I converting enzyme (ACE); assay: cell-based or functional assay
[2] = target: angiotensin I converting enzyme (ACE); assay: cell-based or functional assay; remark: listed apart in the source

ACE inhibition (IC50 value), at-line ACE assay (cleavage of HHL) [1] [µM] | ACE inhibition (IC50 value), modified Matsui assay (cleavage of Hip-His-Leu) [1] [µM] | IC50 value in the Modified Matsui test (ACE inhibition) [2] [µM] | Binder
7.1 | 2 | – | IPP [tripeptide IPP]
3.8 | 0.4 | 0.5 | MAP [tripeptide Methionine-Alanine-Proline (Met-Ala-Pro)]
50 | 10 | – | ITP [tripeptide Isoleucine-Threonine-Proline (Ile-Thr-Pro)]
